PMC3510010
Where two headings read alike, the source gives them in different places.

What was measured:
Assay in all cases: F-EMSA
[1] = target: T1, GLD-1(135-336) (Caenorhabditis elegans, UniProt Q17339 135-336)
T1 sequence: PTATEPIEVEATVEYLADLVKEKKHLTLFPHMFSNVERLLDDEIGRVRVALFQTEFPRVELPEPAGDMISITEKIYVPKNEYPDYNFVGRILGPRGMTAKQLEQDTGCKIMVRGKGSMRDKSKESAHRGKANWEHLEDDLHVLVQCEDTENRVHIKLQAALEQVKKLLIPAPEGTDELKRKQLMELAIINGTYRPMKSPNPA

[2] = target: T2, POS-1(1-206) (Caenorhabditis elegans, UniProt G5EF15 1-206)
[3] = target: T2, POS-1(1-206); remark: listed apart in the source
[4] = target: T1, GLD-1(135-336); remark: listed apart in the source
[5] = target: T3, SPN-4-RBD (Caenorhabditis elegans, UniProt G5EF02 50-135)
T3 sequence: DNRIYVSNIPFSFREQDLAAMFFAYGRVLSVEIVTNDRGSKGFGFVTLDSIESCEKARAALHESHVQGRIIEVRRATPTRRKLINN

[6] = target: POS-1-RBD (80-180) (Caenorhabditis elegans, UniProt G5EF15 80-180)
[7] = target: T2, POS-1(1-206); remark: listed apart in the source
[8] = target: T1, GLD-1(135-336); remark: listed apart in the source
[9] = target: T2, POS-1(1-206); remark: listed apart in the source

T2 sequence (G5EF15 1-206): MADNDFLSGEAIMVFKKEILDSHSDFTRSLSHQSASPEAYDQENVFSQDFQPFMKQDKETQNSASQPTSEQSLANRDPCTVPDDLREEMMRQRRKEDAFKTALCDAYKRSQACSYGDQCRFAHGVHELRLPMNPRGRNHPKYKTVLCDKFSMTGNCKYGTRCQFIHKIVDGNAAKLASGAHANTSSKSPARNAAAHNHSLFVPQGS
Sequence of POS-1-RBD (80-180) (G5EF15 80-180): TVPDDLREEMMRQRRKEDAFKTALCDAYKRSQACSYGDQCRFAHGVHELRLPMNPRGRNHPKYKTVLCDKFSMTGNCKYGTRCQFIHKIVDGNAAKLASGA

For UUUUUCUCCCUCUAGACUAACCCUGUAAGCU (ssRNA) [∆5′ 3′ PRE], the Kd [1] was 0.02 ± 0.003 µM and the Kd [2] was 0.31 ± 0.02 µM.

For UUUUUCUUAUUCUAGACUAAUAUUGUAAGCU (ssRNA) [glp-1 WT], the Kd [3] was 0.019 ± 0.002 µM, the Kd [4] was 0.07 ± 0.01 µM and the binding result [5] was “no binding”. It also gave a Kd [6] of 0.03 ± 0.017 µM.

With UUUUUCUCCCUCUAGACUAAUAUUGUAAGCU (ssRNA) [∆5′ PRE] the Kd [7] was 0.055 ± 0.004 µM and the Kd [8] was 0.033 ± 0.007 µM.

UUUUUCUUAUUCUAGACUAACCCUGUAAGCU (ssRNA) [∆3′ PRE] showed a Kd [8] of 0.025 ± 0.003 µM and a Kd [9] of 0.053 ± 0.001 µM.

Binder UUUUUCUUAUUCUAGACCAAUAUUGUAAGCU (ssRNA) [∆GBM] has a Kd [2] of 0.021 ± 0.001 µM.
